# T1: Human CFHL1-Y402H-His (ATX-P-421) (human)
# T1 construct: also called human CFHL-1 (Y402H) protein
# T1 chain: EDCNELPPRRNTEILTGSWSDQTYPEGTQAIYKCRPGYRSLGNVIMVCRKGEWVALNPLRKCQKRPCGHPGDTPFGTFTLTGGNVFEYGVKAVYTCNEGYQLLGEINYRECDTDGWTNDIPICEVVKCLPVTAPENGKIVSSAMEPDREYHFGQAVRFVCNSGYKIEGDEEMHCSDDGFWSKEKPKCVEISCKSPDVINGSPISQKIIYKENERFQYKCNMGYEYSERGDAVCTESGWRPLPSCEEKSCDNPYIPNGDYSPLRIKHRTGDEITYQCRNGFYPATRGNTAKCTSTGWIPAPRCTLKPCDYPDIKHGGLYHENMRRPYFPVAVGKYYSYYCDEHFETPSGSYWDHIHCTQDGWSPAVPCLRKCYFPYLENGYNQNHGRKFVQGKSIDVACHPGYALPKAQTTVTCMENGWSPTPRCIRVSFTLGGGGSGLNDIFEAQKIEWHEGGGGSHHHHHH
# T2: human CFHL3-His (ATX-P-58) (human, UniProt Q02985 19-330)
# T2 construct: also called human CFHR3 protein; CFHR3; not shown: C-terminal His tag (and linker)
# T2 sequence (looked up): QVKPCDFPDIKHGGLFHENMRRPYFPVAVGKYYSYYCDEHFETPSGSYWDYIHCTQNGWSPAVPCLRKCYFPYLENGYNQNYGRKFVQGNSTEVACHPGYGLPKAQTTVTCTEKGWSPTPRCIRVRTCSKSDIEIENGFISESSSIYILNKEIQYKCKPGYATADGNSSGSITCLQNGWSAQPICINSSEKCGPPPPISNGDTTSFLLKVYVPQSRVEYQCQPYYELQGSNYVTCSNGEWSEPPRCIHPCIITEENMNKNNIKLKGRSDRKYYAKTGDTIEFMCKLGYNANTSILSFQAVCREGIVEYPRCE
# How the values were obtained:
# [1] = target: T1, Human CFHL1-Y402H-His (ATX-P-421); experiment: Carterra LSA biosensor, mAb printed on chip, human CFHL1-Y402H-His at 380 nM
# Method: (§1) Experiments were also conducted to determine the reactivity of the CFHR4 antibodies with the human CFHL-1 (Y402H) protein (FIG. 10). The binding experiments were performed on Carterra LSA with a running buffer of PBS pH 7.40, 1% BSA, 0.05% Tween20. Antibodies were covalently printed on an HC30M chip. Chip was activated with 33 mM s-NHS and 133 mM EDC in 100 mM MES pH 5.5 for 7 minutes. Antibodies at 10 mg/ml in acetic acid buffer pH 4.5 were used for printing for 10 min. The printed chip was then quenched with 1 M ethanolamine pH 8.5 for 7 min. For the reactivity assay, ATX-P-421, human CFHL1-Y402H-His, at 380 nM was tested with 5 min association followed by 15 min dissociation. Results were processed and analyzed in Carterra LSA Kinetics Software. The data was referenced with the interstitial reference spots and double-referenced to a buffer cycle, and then the responses (nm) after association were reported. Isotype control was used to determine the cutoff response for positive binding.
# [2] = target: T2, human CFHL3-His (ATX-P-58); experiment: Carterra LSA biosensor, mAb printed on chip, human CFHL3-His at 550 nM
# Method: as §1, with “CFHR3” for “CFHL-1 (Y402H)”, “9).” for “10).”, “ATX-P-58,” for “ATX-P-421,”, “CFHL3-His,” for “CFHL1-Y402H-His,”, “550” for “380”
Binder,binding result [1],binding result [2]
"ATX-P-577 (antibody, human IgG1, kappa, N297A, V domains shown) VH: QVQLQESGPGLVKPSGTLSLTCAVSGGSISSSNWWTWVRQPPGKGLEWIGETYHDGSTNYNPSLKSRVTISVDKSKNQFSLKLSSVTAADTAVYYCLEFYFDYWGQGTLVTVSS VL: DIQMTQSPSSLSASVGDRVTITCRASQDIRNDLGWYQQKPGKVPKRLIYAASSLQSGVPSRFSGSGSGTEFTLTISSLQPEDFASYYCLQYNNYPFTLGPGTKVDIKR",binds,binds
"ATX-P-579 (antibody, human IgG1, kappa, N297A, V domains shown) VH: QVQLQESGPGLVKPSGTLSLTCAVSGASISTSNWWTWVRQPPGKGLEWIGEIYHDGSTNYSPSLQSRVTISVDKSKNQFSLTLTSVTAADTAIYYCGDFYIDVWGNGTTVTVSS VL: DIQMTQSPSSLSASVGDRVTITCRASQGIRKDLGWYQQKPGKAPKRLIYTASTLQSGVPSRFSGSGSGTEFTLTISSLQPEDFATYYCLQYNNYPFTFGPGTKVDIKR",binds,binds
"ATX-P-587 (antibody, human IgG1, kappa, N297A, V domains shown) VH: QVQLQQSGPGLVKPSQTLSLTCAISGDSVSSNSAAWNWIRQSPSRGLEWLGKTYYRSKWYNYYALSVKSRITINPDTSKNQFSLHLNSVTPEDTAVYYCARDGDYYLPSPFDLWGHGTMVTVSS VL: not shown",binds,binds
"ATX-P-562 (antibody, human IgG1, kappa, N297A, V domains shown) VH: QVQLQQSGPGLVKSSQTLSLTCAISGDTVSSNSAAWNWIRQSPSRGLEWLGRTFYRSRWSAAYAASVSSRITINPDTSKNQFSLQLTSVTPADTAVYYCAREGVGSSTGFDYWGQGTLVTVSS VL: DIQMTQSPSSVSASIGDRVTITCRASKGISIWLAWYQQKPGKAPKVLISAASSLQSGAPSRFSGSGSGTDFTLTISSLQPEDFATYYCQQANSFPPTFGQGTKVEIKR",binds,binds
"ATX-P-576 (antibody, human IgG1, kappa, N297A, V domains shown) VH: EVQLVESGGGLVQPGRSLRLSCTASGFTFDDYEMHWVRQAPGKGLEWVSDISRNSGRIGYADSVKGRFTISRDNAKNSLYLQMNSLRAEDTALYYCAKDIWGSGYFDYWGQGILVTVSS VL: DIQMTQSPSSVSASVGDRVTITCRTSQGIRNWLAWYQQKPGKAPKLLIYAASSLQTGGPSRFSGSGSGTDFTLTISSLQPEDFATYYCQQANSFPYTFGQGTKLEIKR",binds,binds
"ATX-P-564 (antibody, human IgG1, kappa, N297A, V domains shown) VH: EVQLVESGGGLVKPGGSLRLSCAASGFTFSSYTMNWVRQAPGKGLEWVSSISSSSSYTYYADSVRGRFTISRDNAKNSLYLQMSSLRAEDTAVYYCARSASIAAGMDVWGKGTTVTVSS VL: DIVMTQSPLSLPVTPGEPASISCRSSQSLLHSTGYNFLDWYLQKPGLSPQLLIYLASNRASGVPDRFSGSGSGTDFTLKISRVEAEDVGVYYCMQALQTPYTFGQGTKLEIKR",binds,binds

# Now from value to binder:
binding result [1],binding result [2],Binder
binds,binds,"ATX-P-580 (antibody, human IgG1, kappa, N297A, V domains shown) VH: QVQLQESGPGLVKPSGTLSLTCAVSGGSISTSDWWTWVRQPPGKGLEWIGEIYHSGSTNYNPSLKSRVTISVDKSKNQFSLKLSSVTAADTAVYYCADWYFDLWGRGTLVTVSS VL: DIQMTQSPSSLSASVGDRVTITCRASQGIRNDLGWYQQKPGKAPKRLIYAASSLQSGVPSRFSGSGSGTEFTLAISSLQPEDFATYYCLHFNSYPFTFGPGTKVDIKR"
binds,binds,"ATX-P-566 (antibody, human IgG1, kappa, N297A, V domains shown) VH: QVQLQQSGPGLVKPSQTLSLTCAISGDSVSSNSAAWNWIRQSPSRGLEWLGRTYYRSKWFNNYSVSVKSRIAINPDTSKNQFSLQLNSVTPEDTAVYYCARDLGELLDWYFDLWGRGTLVTVSA VL: EIVLTQSPGTLSLSPGDRATLSCRASQSVRNSYVAWYQQKPGQAPRLLIYGASSRATGIPDRFSGSGSGTDFSLTIGRLEPEDFVVYYCQQYGNSPLTFGGGTKVEIKR"
binds,binds,"ATX-P-568 (antibody, human IgG1, kappa, N297A, V domains shown) VH: EVQLVESGGGLVQPGGSLRLSCAASGFPFSSYVMSWVRQAPGKGLEWVSVISVSGGSTFYADSVRGRFTISRDNSKNTLYLQVYSLRAEDTAVYYCAKDGLAVAGFDHWGQGTLVTVSS VL: DIQMTQSPSTLSASVGDRVTITCRASQSISTWLAWYQQKPGKAPKLLIHKASGLESGVPSRFSGSGSGTEFTLTISSLQPDDFATYYCQQYNSFSLIFGGGTRVEIKR"
binds,binds,"ATX-P-583 (antibody, human IgG1, kappa, N297A, V domains shown) VH: QVQLVQSGAEVKKPGASVKVSCKASGYTFTTYGISWVRQAPGQGLEWMGWISAYSGNTHYAQSLQDRVTMTTDTSTSTAYMEVRSLRSDDTAVYYCAKDEGYCSSTGCLNLFDPWGQGTLVTVSS VL: DIQMTQSPSSLSASVGDRVTITCRASQNIGSYLNWYQQKPGNAPKLLIYATSTLQSGVPSRFSGSGSGTDFTLIISSLHPEDFTVYYCQQSFIIPFTFGPGTKVDIKR"
binds,binds,"ATX-P-563 (antibody, human IgG1, kappa, N297A, V domains shown) VH: QVQLQESGPGLMKPSETLSLTCTVSGGSISSHYWSWIRQPPGKGLEWIGYIFYSGNINYNPSLKSRVTISVDTSKNQFSLKLRSVTTADTAVYYCARDRGGSYSYHFDCWGQGTLVTVSS VL: DIQMTQSPSSVSASVGDRVTITCRASQSFAGWLAWYQQKPGKAPKLLIYAASTLQSGVPSRFSGSGSGTDFTLTISSLQPEDFATYYCQQANSFPLTFGGGTKVEIKR"
binds,binds,"ATX-P-573 (antibody, human IgG1, kappa, N297A, V domains shown) VH: QVQLQQSGPGLVKPSQTLSLTCAISGDSVSSNSAAWNWIRQSPSRGLEWLGRTYYRSKLYSDYAVSVKSRITINPDTSRNQFSLQLNSVTPEDTAVYYCAREGGYTYGYDYWGQGTLVTVSS VL: DIQMTQSPSSVSASVGDRVTITCRASQGISSWLAWYQQKPGKAPKVLIYAASSLQSGVPSRFSGSGSGTDFTLTISSLQPEDFATYYCQQANSFPPTFGPGTKVDIKR"
binds,binds,"ATX-P-574 (antibody, human IgG1, kappa, N297A, V domains shown) VH: EVQLVESGGGLVQRGGSLRLSCVASGFTFSSYAMSWVRQAPGKGLEWVSVISGSGGTTYYADSVKGRFTISRDDSKKTLYLQMNSLRAEDTAVYYCAKRGDYGDYMDVWGKGTTVTVSS VL: DIQMTQSPSSVSASVGDRVTITCRASQGITTWLAWYQQKPGKAPKLLIFGASSLESGVPSRFSGSGSGTDFTLTISSLQPEDFATYYCQQANSFPWTFGQGTKVEIKR"
binds,binds,"ATX-P-578 (antibody, human IgG1, kappa, N297A, V domains shown) VH: EVQLVESGGGLVQPGGSLRLSCAASGFTFSRYSMNWVRQAPGKGLEWVSYISSSSSTIFHADSVKGRFTISRDNAKNSLYLQMNSLRDEDTAVYYCARGNWNYYYMDVWGKGTTVTVSS VL: DIQMTQSPSTLSASVGDRVTISCRASQSVNSWLAWYQQKPGKAPKLLIYKASNLEGGVPSSFSGSGSGTEFTLTISSLQPDDFATYYCQQYDTSWTFGQGTKVEIKR"
binds,binds,"ATX-P-565 (antibody, human IgG1, kappa, N297A, V domains shown) VH: QVQLVESGGGVVQPGRSLRLSCAASGFTFNTYGIHWVRQAPGKGLEWVAVIWHDGSSKNYVDSVTGRFTISRDNSKNTVYLQMNSLRAEDTAVYYCARRGNWNYGFYYYYMDVWGKGTTVTVSS VL: DIVMTQSPLSLPVTPGEPASISCRSSQRLLHSSGYNYLDWYLQKPGQSPQLLIYLGSSRASGVPDRFSGSGSGTDFTLKISRVEAEDVGVYYCMQGLQTPPTFGQGTKVEIKR"
